Target: IQ motif containing GTPase activating protein 1 (IQGAP1), endogenous in differentiated HL-60 cells (human (endogenous in HL-60)) (UniProt P46940)
Test: co-IP; rabbit anti-IQGAP1 antibody and Protein A/G agarose; lysates of differentiated HL-60 cells expressing CXCR2, vehicle or 100 ng/ml CXCL8 for 1 or 5 min; western blot for Cdc42, densitometry

Cdc42, endogenous in differentiated HL-60 cells expressing CXCR2, P60953 1-191 (natural protein; other documents disagree on this pair), sequence (P60953 whole entry): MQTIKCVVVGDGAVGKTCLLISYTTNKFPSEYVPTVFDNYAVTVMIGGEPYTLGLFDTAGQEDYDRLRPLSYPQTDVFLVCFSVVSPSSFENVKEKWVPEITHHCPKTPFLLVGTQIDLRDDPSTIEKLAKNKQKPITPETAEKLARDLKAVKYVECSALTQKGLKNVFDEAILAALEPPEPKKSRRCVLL
IQ motif containing GTPase activating protein 1 (IQGAP1), endogenous in differentiated HL-60 cells (human (endogenous in HL-60)), sequence (P46940 whole entry): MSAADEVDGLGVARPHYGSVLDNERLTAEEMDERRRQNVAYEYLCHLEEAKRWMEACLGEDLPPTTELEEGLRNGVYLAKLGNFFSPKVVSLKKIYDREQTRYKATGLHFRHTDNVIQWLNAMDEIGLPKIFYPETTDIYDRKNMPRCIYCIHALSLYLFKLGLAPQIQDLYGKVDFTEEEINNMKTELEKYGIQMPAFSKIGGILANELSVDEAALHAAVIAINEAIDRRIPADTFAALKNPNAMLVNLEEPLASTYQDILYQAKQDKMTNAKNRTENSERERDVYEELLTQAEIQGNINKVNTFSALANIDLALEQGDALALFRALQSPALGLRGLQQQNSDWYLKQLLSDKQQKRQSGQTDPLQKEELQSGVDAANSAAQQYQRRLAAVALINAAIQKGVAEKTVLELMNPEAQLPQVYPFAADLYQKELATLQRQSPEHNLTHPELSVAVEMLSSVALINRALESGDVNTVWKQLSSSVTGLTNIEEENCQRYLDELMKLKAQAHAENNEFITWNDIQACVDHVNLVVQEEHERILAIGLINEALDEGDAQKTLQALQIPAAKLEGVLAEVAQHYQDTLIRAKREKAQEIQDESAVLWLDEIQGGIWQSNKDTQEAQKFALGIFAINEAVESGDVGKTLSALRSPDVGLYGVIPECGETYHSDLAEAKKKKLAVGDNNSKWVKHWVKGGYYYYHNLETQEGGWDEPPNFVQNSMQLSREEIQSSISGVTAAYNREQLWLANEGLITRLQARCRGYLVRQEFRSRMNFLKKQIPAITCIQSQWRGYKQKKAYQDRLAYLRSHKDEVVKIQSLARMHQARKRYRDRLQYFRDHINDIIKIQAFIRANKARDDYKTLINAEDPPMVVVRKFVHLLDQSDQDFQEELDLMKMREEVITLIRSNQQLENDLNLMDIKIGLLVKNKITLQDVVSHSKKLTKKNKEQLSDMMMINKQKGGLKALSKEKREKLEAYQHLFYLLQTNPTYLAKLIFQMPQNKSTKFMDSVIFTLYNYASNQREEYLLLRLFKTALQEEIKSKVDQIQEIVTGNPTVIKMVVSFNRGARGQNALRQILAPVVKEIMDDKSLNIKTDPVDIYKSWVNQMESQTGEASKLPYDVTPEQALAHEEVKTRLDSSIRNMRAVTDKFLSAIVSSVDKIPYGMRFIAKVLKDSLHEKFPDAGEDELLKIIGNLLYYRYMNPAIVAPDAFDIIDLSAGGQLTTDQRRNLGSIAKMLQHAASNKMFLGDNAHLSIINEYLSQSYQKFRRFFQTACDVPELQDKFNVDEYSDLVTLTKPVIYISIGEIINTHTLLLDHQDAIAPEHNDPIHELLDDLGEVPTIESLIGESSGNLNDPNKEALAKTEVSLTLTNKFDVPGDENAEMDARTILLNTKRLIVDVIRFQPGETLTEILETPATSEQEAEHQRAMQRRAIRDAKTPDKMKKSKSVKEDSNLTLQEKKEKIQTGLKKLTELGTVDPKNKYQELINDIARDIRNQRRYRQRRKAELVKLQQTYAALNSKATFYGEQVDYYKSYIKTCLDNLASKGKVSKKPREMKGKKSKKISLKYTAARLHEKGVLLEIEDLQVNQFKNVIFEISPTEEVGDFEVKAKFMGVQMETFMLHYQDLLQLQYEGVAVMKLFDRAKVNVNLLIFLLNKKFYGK

fold increase in co-immunoprecipitated Cdc42 after 1 min of CXCL8 over untreated cells: 1.36 fold
Substance: Cdc42, endogenous in differentiated HL-60 cells expressing CXCR2, P60953 1-191 (natural protein; other documents disagree on this pair)

From paper PMC3158102
